Results from the supplement of paper PMC10598134.
± gives the standard deviation.

Assay: collision cross section of modified peptide (TIMS, N2, iRT-aligned); higher = larger / more extended gas-phase ion
Outline: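 Collision cross section values rest on the Mason-Schamp equation applied to calibrated, run-aligned mobility data from synthetic peptides. Mobility (1/K0) was calibrated with three reference ions and aligned per run to the median iRT peptide deviation, and 1–3 technical replicates of the most abundant feature per charge state were averaged. Data came from a timsTOF Pro/HT in dda-PASEF mode (nitrogen, ~2.4 mbar) after a 120-min nanoflow C18 gradient at 60 °C.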

[1] = charge state: 3, modification: Methyl (K)
[2] = charge state: 2, modification: Succinyl
[3] = charge state: 3, modification: Succinyl
[4] = charge state: 3, modification: Trimethyl (K)
[5] = charge state: 2, modification: Acetyl (K)
[6] = charge state: 2, modification: Butyryl
[7] = charge state: 2, modification: Crotonyl
[8] = charge state: 3, modification: Dimethyl (K)
[9] = charge state: 2, modification: Formyl
[10] = charge state: 2, modification: Glutarylation
[11] = charge state: 3, modification: Glutarylation
[12] = charge state: 2, modification: GlyGly (K)
[13] = charge state: 3, modification: GlyGly (K)
[14] = charge state: 2, modification: Methyl (K)
[15] = charge state: 2, modification: hydroxyisobutyryl
[16] = charge state: 3, modification: hydroxyisobutyryl
[17] = charge state: 2, modification: Nitro (Y)

“IVEKYGYTHLSAGELLR [_IVEK(Methyl (K))YGYTHLSAGELLR_]” showed a collision cross section [1] of 548.39 ± 0.79 Å².

Sequence “IVEKYGYTHLSAGELLR [_IVEK(Succinyl)YGYTHLSAGELLR_]” has a collision cross section [2] of 498.62 ± 0.45 Å² and a collision cross section [3] of 565.13 ± 1.1 Å².

With “IVEKYGYTHLSAGELLR [_IVEK(Trimethyl (K))YGYTHLSAGELLR_]” the collision cross section [4] was 554.1 ± 0.025 Å².

“IVFSGNLFQHQEDSKK [_IVFSGNLFQHQEDSK(Acetyl (K))K_]” showed a collision cross section [5] of 495.37 ± 4.2 Å² and a collision cross section (charge state: 3, modification: Acetyl (K)) of 536.07 ± 1.1 Å².

With “IVFSGNLFQHQEDSKK [_IVFSGNLFQHQEDSK(Butyryl)K_]” the collision cross section [6] was 504.05 ± 1 Å² and the collision cross section (charge state: 3, modification: Butyryl) was 542.63 ± 1.2 Å².

Work on “IVFSGNLFQHQEDSKK [_IVFSGNLFQHQEDSK(Crotonyl)K_]” yielded a collision cross section [7] of 503.03 ± 1.1 Å² and a collision cross section (charge state: 3, modification: Crotonyl) of 539.53 ± 1.2 Å².

“IVFSGNLFQHQEDSKK [_IVFSGNLFQHQEDSK(Dimethyl (K))K_]” showed a collision cross section [8] of 532.16 ± 0.77 Å².

“IVFSGNLFQHQEDSKK [_IVFSGNLFQHQEDSK(Formyl)K_]” showed a collision cross section [9] of 496.72 ± 1.3 Å² and a collision cross section (charge state: 3, modification: Formyl) of 530.13 ± 1.3 Å².

For “IVFSGNLFQHQEDSKK [_IVFSGNLFQHQEDSK(Gluratylation)K_]”, the collision cross section [10] was 499.16 ± 1.4 Å² and the collision cross section [11] was 531.31 ± 9.1 Å².

Work on “IVFSGNLFQHQEDSKK [_IVFSGNLFQHQEDSK(GlyGly (K))K_]” yielded a collision cross section [12] of 491.77 Å² and a collision cross section [13] of 544.77 ± 1.6 Å².

“IVFSGNLFQHQEDSKK [_IVFSGNLFQHQEDSK(Methyl (K))K_]” gave a collision cross section [14] of 490.37 Å² and a collision cross section [1] of 529.21 ± 1.6 Å².

In the case of “IVFSGNLFQHQEDSKK [_IVFSGNLFQHQEDSK(Succinyl)K_]”, the collision cross section [2] is reported as 493.41 ± 1 Å² and the collision cross section [3] is reported as 524.55 ± 2 Å².

Work on “IVFSGNLFQHQEDSKK [_IVFSGNLFQHQEDSK(Trimethyl (K))K_]” yielded a collision cross section [4] of 536.81 ± 0.89 Å².

With “IVFSGNLFQHQEDSKK [_IVFSGNLFQHQEDSK(hydroxyisobutyryl)K_]” the collision cross section [15] was 503.66 ± 0.71 Å² and the collision cross section [16] was 534.25 ± 1.1 Å².

In the case of IVNVSLADLR [_IVNVS(HexNAc (ST))LADLR_], the collision cross section (charge state: 2, modification: HexNAc (ST)) is reported as 388.29 ± 1.2 Å².

“IVSGKDYNVTANSK [_IVSGK(Acetyl (K))DYNVTANSK_]” showed a collision cross section [5] of 408.96 ± 0.54 Å².

For “IVSGKDYNVTANSK [_IVSGK(Biotin)DYNVTANSK_]”, the collision cross section (charge state: 2, modification: Biotin) was 432.72 ± 2.7 Å² and the collision cross section (charge state: 3, modification: Biotin) was 508.73 Å².

In the case of “IVSGKDYNVTANSK [_IVSGK(Butyryl)DYNVTANSK_]”, the collision cross section [6] is reported as 419.09 ± 2.9 Å².

In the case of “IVSGKDYNVTANSK [_IVSGK(Crotonyl)DYNVTANSK_]”, the collision cross section [7] is reported as 415.26 ± 1.1 Å².

For “IVSGKDYNVTANSK [_IVSGK(Dimethyl (K))DYNVTANSK_]”, the collision cross section (charge state: 2, modification: Dimethyl (K)) was 404.57 ± 0.47 Å² and the collision cross section [8] was 462.9 ± 1.6 Å².

Sequence “IVSGKDYNVTANSK [_IVSGK(Formyl)DYNVTANSK_]” has a collision cross section [9] of 405.86 ± 0.56 Å².

For “IVSGKDYNVTANSK [_IVSGK(Gluratylation)DYNVTANSK_]”, the collision cross section [10] was 417.68 ± 1.5 Å² and the collision cross section [11] was 473.57 ± 2.4 Å².

“IVSGKDYNVTANSK [_IVSGK(GlyGly (K))DYNVTANSK_]” showed a collision cross section [12] of 423.62 ± 2 Å² and a collision cross section [13] of 476.53 ± 2.2 Å².

“IVSGKDYNVTANSK [_IVSGK(Malonyl)DYNVTANSK_]” showed a collision cross section (charge state: 2, modification: Malonyl) of 407.96 ± 0.037 Å² and a collision cross section (charge state: 3, modification: Malonyl) of 465.84 ± 1.8 Å².

“IVSGKDYNVTANSK [_IVSGK(Methyl (K))DYNVTANSK_]” gave a collision cross section [14] of 411.95 ± 2 Å² and a collision cross section [1] of 471.19 ± 3.6 Å².

Sequence “IVSGKDYNVTANSK [_IVSGK(Propionyl)DYNVTANSK_]” has a collision cross section (charge state: 2, modification: Propionyl) of 411.4 ± 0.64 Å².

“IVSGKDYNVTANSK [_IVSGK(Succinyl)DYNVTANSK_]” gave a collision cross section [2] of 411.09 ± 0.54 Å².

Work on “IVSGKDYNVTANSK [_IVSGK(Trimethyl (K))DYNVTANSK_]” yielded a collision cross section (charge state: 2, modification: Trimethyl (K)) of 419.62 ± 1.6 Å² and a collision cross section [4] of 475.29 ± 2.4 Å².

Work on “IVSGKDYNVTANSK [_IVSGK(hydroxyisobutyryl)DYNVTANSK_]” yielded a collision cross section [15] of 417.55 ± 0.55 Å² and a collision cross section [16] of 466.6 ± 0.46 Å².

For “IYELAAGGTAVGTGLNTR [_IY(Nitro (Y))ELAAGGTAVGTGLNTR_]”, the collision cross section [17] was 447.13 ± 1.1 Å².

Work on IYHPNVDK [_IY(Nitro (Y))HPNVDK_] yielded a collision cross section [17] of 340.06 ± 0.72 Å² and a collision cross section (charge state: 3, modification: Nitro (Y)) of 427.49 ± 0.064 Å².

With IYHPNVDK [_IY(Phospho (Y))HPNVDK_] the collision cross section (charge state: 2, modification: Phospho (Y)) was 353.97 ± 0.065 Å² and the collision cross section (charge state: 3, modification: Phospho (Y)) was 437.48 Å².
